According to patent US20260132208A1 (DOMAIN THERAPEUTICS, published 2026):
Changes are numbered by the printed parent chain. Several values for one entry are separate records, joined by “and”; a condition that tells them apart may be missing. Identical values can stand only once.

B1: Ref #2 (antibody, human IgG1, V domains shown)
VH: QVQLVQSGAEVKKPGASVKVSCKASGYTFTSYYMHWVRQAPGQGLEWMGIINPSGGSTSYAQKFQGRVTMTRDTSTSTVYMELSSLRSEDTAVYYCARAVRNRFRFDYWGQGTLVTVSS
VL: QSALTQPASVSGSPGQSITISCTGTSSDVGSYNLVSWYQQHPGKAPKLMIYEVSKRPSGVSNRFSGSKSGNTASLTISGLQAEDEADYYCSSYAGSSTFVVFGGGTKLTVL
B2: anti-CCR8 mAb 1-12 (antibody, V domains shown)
VH: EVQLVETGGGLVQPKGSLKLSCAASGFTFNANAMNWVRQAPGKGLEWVARIRSKSNNYATYYADSVKDRFTISRDDSQSMLYLQMNNLKTEDTAMYYCVRGSDNYIFYAMDYWGQGTSVTVSS
VL: DIVMTQAAPSVPVTPGESVSISCRSSKSLLHSNGNTYLYWFLQRPGQSPQLLIYRMSNLASGVPDRFSGSGSGTAFTLRISRVEAEDVGVYYCMQHLEYPFTFGGGTKLEIK
notes: Murine hybridoma mAb
B3: anti-CCR8 mAb 1-13 (antibody, V domains shown)
VH: B2 VH with A31T, N57Y, S102R, D103E, N104M, Y105G, I106N, F107Y, A109S
VL: B2 VL with G105S
notes: Murine hybridoma mAb
B4: anti-CCR8 mAb 1-14 (antibody, V domains shown)
VH: QVQLVETGGGLVRPGNSLKLSCVTSGFTFSNYRMHWLRQPPGKRLEWIAVIKVKSDNYGANYAESVKGRFTISRDDSKSSVYLQVNRLREEDTATYYCSSPTYPGSSGFAYWGQGTLVTVSA
VL: DIQMTQTTSSLSASLGDRVTISCRASQDISNYLNWYQQKPDGTVKLLIYYTSRLHSGVPSRFSGSGSGTDYSLTISNLEQEDIATYFCQQGNKFPPTFGGGTKLEIN
notes: Murine hybridoma mAb
B5: anti-CCR8 mAb 1-7 (antibody, V domains shown)
VH: QVHLVETGGGLVRPGNSLKLSCVTSGFTLSNYRMHWLRQPPGKRLEWIAVIKVKSDNYGANYAESVKGRFTISRDDAKSSVYLQMNRLREEDTATYYCSRPDGFSPFVYWGQGTLVTVSA
VL: DIKMTQSPSSMYASLGERVTITCKASQDINSYLSWFQQKPGKSPKTLIYRANRLVDGVPSRFSGSGSGQDYFLTISSLEYEDMGIYYCLQYGEFPPTFGAGTKLELK
notes: Murine hybridoma mAb

molecular target: human CCR8 with a SNAP-tag at the N-terminus (human, UniProt P51685 1-355, SNAP-tag labelled covalently with Lumi4-Terbium); experiment: cell-based or functional assay

Binder	% hCCR8 internalization with CCL1 300 nM, mAb 1 µg/ml (HTRF)	% hCCR8 internalization with CCL1 300 nM, mAb 10 µg/ml (HTRF)
B1	100%	90%

molecular target: T1, human CCR8 (human, UniProt P51685 1-355); experiment: cell-based or functional assay

Binder	extrapolated top plateau of hCCL1 curve with 5 µg/mL mAb, protocol #3
B2	805000 % of hCCL1 (100 nM)
B3	149 % of hCCL1 (100 nM)
B4	305000 % of hCCL1 (100 nM)
B5	526000 % of hCCL1 (100 nM)

molecular target: T1, human CCR8; experiment: cell-based or functional assay; remark: another data set of the same source

Binder	residual hCCL1 (100 nM) Gi2 response, protocol #2, mAb 0.08 µg/mL	residual hCCL1 (100 nM) Gi2 response, protocol #2, mAb 0.4 µg/mL	residual hCCL1 (100 nM) Gi2 response, protocol #2, mAb 10 µg/mL	residual hCCL1 (100 nM) Gi2 response, protocol #3, mAb 0.05 µg/mL	residual hCCL1 (100 nM) Gi2 response, protocol #3, mAb 0.5 µg/mL	residual hCCL1 (100 nM) Gi2 response, protocol #3, mAb 5 µg/mL
B2	99%	85%	68%	86%	75%	48%
B3	60%	35%	21%	69%	39%	38%
B4	93%	89%	48%	92%	68%	50%
B5	73%	51%	24%	69%	38%	30%

molecular target: T1, human CCR8; experiment: cell-based or functional assay; remark: another data set of the same source

Binder	IC50 of CCL1-induced hCCR8 Gi2 signaling (BRET), pH 6.5	IC50 of CCL1-induced hCCR8 Gi2 signaling (BRET), pH 7.4
B2	0.031 µg/ml and 0.208 nM	0.017 µg/ml and 0.115 nM
B3	0.019 µg/ml and 0.125 nM	0.011 µg/ml and 0.075 nM
B4	0.014 µg/ml and 0.095 nM	0.004 µg/ml and 0.026 nM
B5	0.011 µg/ml and 0.073 nM	0.007 µg/ml and 0.047 nM

molecular target: T1, human CCR8; experiment: flow cytometry, hCCR8-transfected CHO-K1 cells
Procedure: Briefly, 1.10⁵ cells per well in a 96 well plate were incubated with a dilution of unconjugated anti-CCR8 mAb at 10 μg/mL then diluted at 1/3.33, 4 dilution points (during 30 min at 4° C.). In human activated T cells model, prior to mAb incubation, cells were first incubated with 200 nM of hCCL1 (R&D Systems, Minneapolis, MN, USA) or buffer PBS (Invitrogen by Thermofisher Scientific, Illkirch-Graffenstaden, France) supplemented by 2% Fetal Bovine Serum (Invitrogen by Thermofisher Scientific, Illkirch-Graffenstaden, France) and 2 mM EDTA (Invitrogen by Thermofisher Scientific, Illkirch-Graffenstaden, France) during 1 hour at 4° C. To determine EC50 value, 8 concentrations of anti-CCR8 mAb were tested. Unbound antibodies were washed away with PBS (Invitrogen by Thermofisher Scientific, Illkirch-Graffenstaden, France) supplemented by 2% Fetal Bovine Serum (Invitrogen by Thermofisher Scientific, Illkirch-Graffenstaden, France) and 2 mM EDTA (Invitrogen by Thermofisher Scientific, Illkirch-Graffenstaden, France). Subsequently, cells are centrifuged (5 min at 400 g) and bound antibody is detected with F(ab′)2-Goat anti-Mouse IgG (H+L) Cross-Adsorbed Secondary Antibody, Alexa Fluor 488 (dilution 1/500) (Invitrogen by Thermofisher Scientific, Illkirch-Graffenstaden, France) or with F(ab′)₂-Goat anti-Human IgG Fc Secondary Antibody, PE (Invitrogen by Thermofisher Scientific, Illkirch-Graffenstaden, France) (dilution 1/1000) at 4° C. for 30 min. Detection reagent is washed away and cells are centrifuged (5 min at 400 g) and resuspended in 30 μL PBS. Bound detection antibody is quantified on a MacsQuant16 (Miltenyi, Gladbach, Germany) (B1 or B2 channel, 5000 events per acquisition). During the experiment, the respective isotype mAb controls (mouse IgG1, mouse IgG2a, mouse IgG2b, mouse IgG3 or human IgG1) (Biolegend, Amsterdam, The Netherlands) are included to exclude any unspecific binding events. EC50 values were determined via nonlinear fit “log (agonist) vs.response—Variable slope (four parameters)” function of Graphpad prism. EC50 values were not constantly determined in the same experiments.

Binder	% positive cells	MFI fold change to isotype ctrl
B2	67.8%	6.11 fold
B3	64.7%	5.63 fold
B4	83%	17.6 fold
B5	71.3%	6.26 fold

molecular target: T2, pm8 (Y15, Y16 and Y17 sulfated); experiment: ELISA on coated peptide [cont.]
T2 construct: also called sulfated CCR8 N-terminal peptide pm8
T2 sequence (peptide, as listed by the source): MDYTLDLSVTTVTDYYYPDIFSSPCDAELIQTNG
Procedure: (§1) The specific binding properties of antibodies were evaluated by ELISA with coated CCR8 related peptides (500 ng/ml) in carbonate/bicarbonate buffer. Different peptides were used as described in Table 1 (see Example 1). Each anti-CCR8 mAb was tested at 1 μg/mL then diluted at 1/10. After an incubation at room temperature during 90 min, unbound mAbs were removed by washings. […] After washings, 3,3′,5,5′-tetramethylbenzidine (TMB) (Interchim, Montluçon, France) was added for 15 min. Then the optical density (OD) was determined by using a multiplate reader (Tecan, Lyon, France) and correlated with mAb reactivity on the panel of coated peptides.

Binder	binding result
B2	binds
B3	binds
B4	binds
B5	binds

molecular target: T3, pm6 (Y16 and Y17 sulfated; Y15 not sulfated); experiment: ELISA on coated peptide [cont.]
T3 construct: also called sulfated CCR8 N-terminal peptide pm6
T3 sequence (peptide, as listed by the source): as above
Procedure: as §1

Binder	binding result
B2	binds
B3	binds
B4	binds
B5	binds

molecular target: T4, pm3 (Y17 sulfated; Y15 and Y16 not sulfated); experiment: ELISA on coated peptide [cont.]
T4 construct: also called sulfated CCR8 N-terminal peptide pm3
T4 sequence (peptide, as listed by the source): as above
Procedure: as §1

Binder	binding result
B2	binds
B3	binds
B4	binds
B5	binds

molecular target: T5, pm5 (Y15 and Y17 sulfated; Y16 not sulfated); experiment: ELISA on coated peptide [cont.]
T5 construct: also called sulfated CCR8 N-terminal peptide pm5
T5 sequence (peptide, as listed by the source): as above
Procedure: as §1

Binder	binding result
B2	binds
B3	binds
B4	binds
B5	binds

molecular target: T1, human CCR8; experiment: flow cytometry, inhibition of hCCL1-AF647 (10 nM) binding to hCCR8-CHO cells
Procedure: The hCCR8 transfected CHO cell line was dispatched at a density of 1.105 per well in a 96-well plate. Cells were incubated for 30 min at 4° C. with or without anti-CCR8 mAb tested at 10 μg/mL then diluted at 1/3. Unbound antibodies were washed away with PBS (Gibco, Villebon-sur-yvette, France) supplemented by 2% Fetal Bovine Serum (Invitrogen by Thermofisher Scientific, Illkirch-Graffenstaden, France) and 2 mM EDTA. […] After washing unbound ligands, CCL1 bound detection is quantified on a MacsQuant16 (Miltenyi, Gladbach, Germany) (R1 channel, 5 000 events per acquisition).
For IC₅₀ determination, a concentration response curve is performed using 8 concentrations of mAb. Curves are fitted and IC₅₀ of CCL1 binding blocking activity is calculated using the sigmoidal dose-response (variable slope) model on GraphPad Prism 9 (GraphPad Software, San Diego, CA, USA).

Binder	IC50
B2	0.85 µg/mL and 5.72 nM
B3	0.36 µg/mL and 2.42 nM
B4	0.28 µg/mL and 1.85 nM
B5	0.89 µg/mL and 5.7 nM

molecular target: T1, human CCR8; experiment: cell-based or functional assay; remark: another data set of the same source

Binder	IC50 of CCL1-induced hCCR8 Gi2 signaling (BRET, HEK-293)
B2	0.015 µg/mL and 0.099 nM
B3	0.01 µg/mL and 0.067 nM
B4	0.01 µg/mL and 0.066 nM
B5	0.018 µg/mL and 0.117 nM
